Assays:
LFA-1 on SKW-3 cells = target: T1, LFA-1 on SKW-3 cells (Homo sapiens, UniProt P05107+P20701); experiment: SKW-3 cell binding to ICAM-1 bound to plastic (solid phase); assay type: cell-based; details: purified protein bound to 96-well plates
T1 construct: SKW-3 cells bearing LFA-1 on their surface; endogenous in cells; host or cells: SKW-3 T-lymphoma cells
Source text: The truncated ICAM-1 secreted from transfected cells was purified by immunoaffinity chromatography with an ICAM-1 specific antibody (R6-5-D6) and tested for functional activity in a cell binding assay. […] These preparations of ICAM-1 were allowed to bind to the surfaces of plastic 96-well plates (Nunc), to produce ICAM-1 bound to a solid-phase. After washing out unbound material, approximately 75-80% and 83-88% of SKW-3 cells bearing LFA-1 on their surface bound specifically to the native and to the truncated forms of ICAM-1, respectively.

LFA-1 = target: T2, LFA-1 (Homo sapiens, UniProt P05107+P20701); experiment: Adherence of COS cells expressing ICAM-1 or ICAM-1 mutants to plastic-bound purified LFA-1; assay type: cell-based
T2 construct: endogenous in cells

HRV14 = experiment: Binding of [^35S]-Met labeled HRV14 to COS cells expressing ICAM-1 mutants; assay type: cell-based, human rhinovirus 14

T2 sequence (P20701 26-1170): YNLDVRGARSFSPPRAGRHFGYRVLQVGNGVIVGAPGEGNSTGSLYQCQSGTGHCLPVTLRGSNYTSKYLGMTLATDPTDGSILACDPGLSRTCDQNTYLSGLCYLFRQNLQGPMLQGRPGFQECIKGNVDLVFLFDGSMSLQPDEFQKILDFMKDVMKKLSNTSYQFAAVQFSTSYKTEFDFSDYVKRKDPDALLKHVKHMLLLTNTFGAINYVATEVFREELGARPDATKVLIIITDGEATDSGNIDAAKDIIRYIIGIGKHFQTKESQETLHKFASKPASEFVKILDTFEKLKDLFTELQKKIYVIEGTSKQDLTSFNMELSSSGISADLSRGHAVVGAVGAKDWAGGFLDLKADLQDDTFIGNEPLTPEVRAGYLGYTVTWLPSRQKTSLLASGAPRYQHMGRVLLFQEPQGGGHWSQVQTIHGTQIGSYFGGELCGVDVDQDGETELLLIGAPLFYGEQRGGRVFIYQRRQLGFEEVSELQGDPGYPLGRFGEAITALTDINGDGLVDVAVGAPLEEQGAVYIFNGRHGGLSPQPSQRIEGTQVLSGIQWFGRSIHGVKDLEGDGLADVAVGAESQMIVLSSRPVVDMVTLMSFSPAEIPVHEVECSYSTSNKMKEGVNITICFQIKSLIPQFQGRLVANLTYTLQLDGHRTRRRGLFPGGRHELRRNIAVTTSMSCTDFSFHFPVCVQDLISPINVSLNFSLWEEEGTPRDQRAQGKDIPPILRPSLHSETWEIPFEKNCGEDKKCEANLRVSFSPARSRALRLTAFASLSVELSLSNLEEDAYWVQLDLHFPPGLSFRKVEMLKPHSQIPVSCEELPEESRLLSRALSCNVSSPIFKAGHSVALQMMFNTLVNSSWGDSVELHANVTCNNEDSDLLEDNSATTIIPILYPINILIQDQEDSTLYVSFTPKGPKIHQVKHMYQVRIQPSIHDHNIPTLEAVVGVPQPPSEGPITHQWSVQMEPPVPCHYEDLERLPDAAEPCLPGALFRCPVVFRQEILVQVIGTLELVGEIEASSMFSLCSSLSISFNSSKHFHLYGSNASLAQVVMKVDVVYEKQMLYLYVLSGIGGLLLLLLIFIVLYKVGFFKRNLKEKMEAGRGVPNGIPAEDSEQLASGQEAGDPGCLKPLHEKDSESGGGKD
T2 sequence (P05107 23-769): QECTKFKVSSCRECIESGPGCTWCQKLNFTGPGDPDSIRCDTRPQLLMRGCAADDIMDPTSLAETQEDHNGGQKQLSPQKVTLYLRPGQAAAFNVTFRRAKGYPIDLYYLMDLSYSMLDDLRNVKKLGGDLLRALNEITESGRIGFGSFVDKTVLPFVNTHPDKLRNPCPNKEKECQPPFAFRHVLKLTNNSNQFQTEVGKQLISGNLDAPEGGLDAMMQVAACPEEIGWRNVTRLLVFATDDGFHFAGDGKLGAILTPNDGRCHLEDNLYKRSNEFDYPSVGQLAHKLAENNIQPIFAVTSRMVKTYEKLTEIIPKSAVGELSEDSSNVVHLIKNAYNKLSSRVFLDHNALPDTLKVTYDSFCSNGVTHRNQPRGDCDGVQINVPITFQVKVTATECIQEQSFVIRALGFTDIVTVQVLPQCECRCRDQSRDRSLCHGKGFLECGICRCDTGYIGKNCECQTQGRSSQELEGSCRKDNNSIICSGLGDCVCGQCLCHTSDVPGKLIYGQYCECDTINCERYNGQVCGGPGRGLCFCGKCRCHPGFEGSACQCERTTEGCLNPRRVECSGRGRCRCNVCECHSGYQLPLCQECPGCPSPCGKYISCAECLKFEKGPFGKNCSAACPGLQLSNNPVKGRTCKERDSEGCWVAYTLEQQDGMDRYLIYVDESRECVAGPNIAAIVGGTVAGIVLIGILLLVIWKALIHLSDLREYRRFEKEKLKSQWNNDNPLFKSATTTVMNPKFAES
T1 sequence (P20701 26-1170): as the sequence (P20701 26-1170) above
T1 sequence (P05107 23-769): as the sequence (P05107 23-769) above

B1: Native ICAM-1: native (wild-type) Intercellular Adhesion Molecule-1, purified or expressed in COS cells (protein, UniProt P05362 28-532, looked up)
Intercellular adhesion …: QTSVSPSKVILPRGGSVLVTCSTSCDQPKLLGIETPLPKKELLLPGNNRKVYELSNVQEDSQPMCYSNCPDGQSTAKTFLTVYWTPERVELAPLPSWQPVGKNLTLRCQVEGGAPRANLTVVLLRGEKELKREPAVGEPAEVTTTVLVRRDHHGANFSCRTELDLRPQGLELFENTSAPYQLQTFVLPATPPQLVSPRVLEVDTQGTVVCSLDGLFPVSEAQVHLALGDQRLNPTVTYGNDSFSAKASVSVTAEDEGTQRLTCAVILGNQSQETLQTVTIYSFPAPNVILTKPEVSEGTEVTVKCEAHPRAKVTLNGVPAQPLGPRAQLLLKATPEDNGRSFSCSATLEVAGQLIHKNQTRELRVLYGPRLDERDCPGNWTWPENSQQTPMCQAWGNPLPELKCLKDGTFPLPIGESVTVTRDLEGTYLCRARSTQGEVTRKVTVNVLSPRYEIVIITVVAAAVIMGTAGLSTYLYNRQRKIKKYRLQQAQKGTPMKPNTQATPP
SKW-3 cells bound specifically to plastic-bound ICAM-1 (LFA-1 on SKW-3 cells): 75-80% | Percent of ICAM-1 expressing COS cells that bound to LFA-1, mean (LFA-1): 33% | Percent of ICAM-1 expressing COS cells that bound to LFA-1, range over experiments (LFA-1; mock-transfected 0-1%): 11-63% | % of Cells Expressing ICAM-1 that Bind LFA-1 in the Presence of RR1/1 (LFA-1; transfected Cos cells, purified LFA-1 on plastic): 0% | Percent of [^35S] methionine-labeled HRV-14 which bound to COS cells, mean (HRV14): 21% | Percent of [^35S] methionine-labeled HRV-14 which bound to COS cells, range over experiments (HRV14; mock-transfected 0-4%): 6-43%
